Data published in patent publication US20050019862.

Target: T1, human plasminogen, P00747
T1 chain: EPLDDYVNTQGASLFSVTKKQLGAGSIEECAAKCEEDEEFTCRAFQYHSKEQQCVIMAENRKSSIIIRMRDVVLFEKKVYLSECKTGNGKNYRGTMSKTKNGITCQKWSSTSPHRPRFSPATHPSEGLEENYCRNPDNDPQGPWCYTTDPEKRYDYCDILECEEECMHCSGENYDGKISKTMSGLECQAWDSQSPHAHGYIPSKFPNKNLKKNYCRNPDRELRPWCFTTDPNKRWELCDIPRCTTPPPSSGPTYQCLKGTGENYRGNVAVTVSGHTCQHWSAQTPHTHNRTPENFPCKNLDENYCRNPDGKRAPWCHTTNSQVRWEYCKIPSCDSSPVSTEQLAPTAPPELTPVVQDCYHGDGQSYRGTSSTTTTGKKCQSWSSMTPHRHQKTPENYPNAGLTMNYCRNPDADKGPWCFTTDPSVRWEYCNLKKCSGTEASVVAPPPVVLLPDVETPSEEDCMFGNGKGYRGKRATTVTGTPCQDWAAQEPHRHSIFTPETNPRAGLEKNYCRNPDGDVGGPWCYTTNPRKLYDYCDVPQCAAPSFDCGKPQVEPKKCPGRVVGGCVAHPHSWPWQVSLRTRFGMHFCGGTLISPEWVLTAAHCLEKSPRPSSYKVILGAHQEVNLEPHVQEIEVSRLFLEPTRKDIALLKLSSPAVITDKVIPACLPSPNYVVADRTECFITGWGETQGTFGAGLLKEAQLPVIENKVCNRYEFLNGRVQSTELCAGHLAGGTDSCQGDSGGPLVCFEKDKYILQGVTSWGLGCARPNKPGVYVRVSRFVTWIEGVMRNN

B1: recombinant staphylokinase (SAK) produced in E. coli from plasmid pOXYSAK-1 (protein)
chain: SSSFDKGKYKKGDDASYFEPTGPYLMVNVTGVDGKGNELLSPHYVEFPIKPGTTLTKEKIEYYVEWALDATAYKEFRVVELDPSAKIEVTYYDKNKKKEETKSFPITEKGFVVPDLSEHIKNPGFNLITKVVIEKK
Specific activity of purified SAK protein: 1.75 U/µg protein
